According to article PMC3149827 (2011):
Each block holds one molecule with its values, some of them ahead of it.

Key:
[1] = molecular target: Soluble expressed urokinase plasminogen activator receptor; assay: SPR
gC1qR (Homo sapiens) = gC1qR (Homo sapiens) (UniProt Q07021); conditions: cited from earlier work
cytokeratin 1 = molecular target: T1, cytokeratin 1 (Homo sapiens, UniProt P04264); assay: SPR
T1 chain: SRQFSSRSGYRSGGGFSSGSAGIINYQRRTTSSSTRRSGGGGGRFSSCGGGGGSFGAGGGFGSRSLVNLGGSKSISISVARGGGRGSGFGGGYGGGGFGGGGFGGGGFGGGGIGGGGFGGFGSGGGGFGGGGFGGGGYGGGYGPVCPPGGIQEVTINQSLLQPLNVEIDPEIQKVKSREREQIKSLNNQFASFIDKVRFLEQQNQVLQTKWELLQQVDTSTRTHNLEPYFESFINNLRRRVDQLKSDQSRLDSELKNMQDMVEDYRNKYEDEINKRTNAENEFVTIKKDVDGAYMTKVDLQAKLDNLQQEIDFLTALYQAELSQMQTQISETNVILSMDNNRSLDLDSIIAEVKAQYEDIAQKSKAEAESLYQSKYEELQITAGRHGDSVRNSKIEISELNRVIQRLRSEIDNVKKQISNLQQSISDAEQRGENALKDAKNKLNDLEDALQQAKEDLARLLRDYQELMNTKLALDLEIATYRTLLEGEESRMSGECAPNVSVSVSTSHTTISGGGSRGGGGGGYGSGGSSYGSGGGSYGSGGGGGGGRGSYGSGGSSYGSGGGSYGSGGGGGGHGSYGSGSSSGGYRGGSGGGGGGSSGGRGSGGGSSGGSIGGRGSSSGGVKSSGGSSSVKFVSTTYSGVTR

gC1qR (Homo sapiens), sequence (Q07021 74-282): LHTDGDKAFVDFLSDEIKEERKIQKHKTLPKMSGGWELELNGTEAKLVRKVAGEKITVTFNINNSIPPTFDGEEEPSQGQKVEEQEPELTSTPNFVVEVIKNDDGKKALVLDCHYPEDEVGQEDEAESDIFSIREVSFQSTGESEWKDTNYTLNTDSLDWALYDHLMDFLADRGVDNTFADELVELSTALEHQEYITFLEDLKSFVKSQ

Kd [1]: 0.1 to 1 nM
Molecule: Single-chain urokinase-type plasminogen activator (ligand)

Molecule: cleaved high-molecular-weight kininogen (HKa) (from UniProt P01042)
Kd (gC1qR (Homo sapiens)): 9 nM

Kd (cytokeratin 1): ~10 nM
B1: high-molecular-weight kininogen (HK/HKa) (protein)
chain: QESQSEEIDCNDKDLFKAVDAALKKYNSQNQSNNQFVLYRITEATKTVGSDTFYSFKYEIKEGDCPVQSGKTWQDCEYKDAAKAATGECTATVGKRSSTKFSVATQTCQITPAEGPVVTAQYDCLGCVHPISTQSPDLEPILRHGIQYFNNNTQHSSLFMLNEVKRAQRQVVAGLNFRITYSIVQTNCSKENFLFLTPDCKSLWNGDTGECTDNAYIDIQLRIASFSQNCDIYPGKDFVQPPTKICVGCPRDIPTNSPELEETLTHTITKLNAENNATFYFKIDNVKKARVQVVAGKKYFIDFVARETTCSKESNEELTESCETKKLGQSLDCNAEVYVVPWEKKIYPTVNCQPLGMISLMKRPPGFSPFRSSRIGEIKEETTVSPPHTSMAPAQDEERDSGKEQGHTRRHDWGHEKQRKHNLGHGHKHERDQGHGHQRGHGLGHGHEQQHGLGHGHKFKLDDDLEHQGGHVLDHGHKHKHGHGHGKHKNKGKKNGKHNGWKTEHLASSSEDSTTPSAQTQEKTEGPTPIPSLAKPGVTVTFSDFQDSDLIATMMPPISPAPIQSDDDWIPDIQIDPNGLSFNPISDFPDTTSPKCPGRPWKSVSEINPTTQMKESYYFDLTDGLS
modifications: Zn2+
